Laboratory results from US20120172293A1 (Takeda / Millennium, published 2012).
Starred links: 1 amine or outer side, 2 acyl side, 3 side chain; linkers in the order of their positions; H or OH if unused. Non-standard residues stand in square brackets, D forms with d. No end group written: not given here. *: point of attachment. 2‑hydroxyethylcarbamoyl = O=C(NCCO)*; tBuAla = CC(C)(C)C[C@H](N)C(=O)O; Cha = N[C@@H](CC1CCCCC1)C(=O)O; Suc = O=C(CCC(=O)[*:2])[*:1]; 4Amb = NCc1ccc(C(=O)O)cc1; Aib = CC(C)(N)C(=O)O; Carbamoyl = NC(=O)*

B1: 4-Aminomethylbenzoyl-[D-Arg25, Ala26, Ile28,31]-PYY(25-36) (peptide)
peptide: [4Amb][dR]AYINLITRQRY-NH2
modifications: N-terminus assumed
SMILES: CC[C@H](C)[C@H](NC(=O)[C@H](Cc1ccc(O)cc1)NC(=O)[C@H](C)NC(=O)[C@@H](CCCNC(=N)N)NC(=O)c1ccc(CN)cc1)C(=O)N[C@@H](CC(N)=O)C(=O)N[C@@H](CC(C)C)C(=O)N[C@H](C(=O)N[C@H](C(=O)N[C@@H](CCCNC(=N)N)C(=O)N[C@@H](CCC(N)=O)C(=O)N[C@@H](CCCNC(=N)N)C(=O)N[C@@H](Cc1ccc(O)cc1)C(N)=O)[C@@H](C)O)[C@@H](C)CC
notes: also called compound No. 9
B2: Carbamoyl-[D-Pro24, Cha27,28,36, Aib31]-PYY(23-36) (peptide)
peptide: Carbamoyl-S[dP]RH[Cha][Cha]NL[Aib]TRQR[Cha]-NH2
SMILES: CC(C)C[C@H](NC(=O)[C@H](CC(N)=O)NC(=O)[C@H](CC1CCCCC1)NC(=O)[C@H](CC1CCCCC1)NC(=O)[C@H](Cc1c[nH]cn1)NC(=O)[C@H](CCCNC(=N)N)NC(=O)[C@H]1CCCN1C(=O)[C@H](CO)NC(N)=O)C(=O)NC(C)(C)C(=O)N[C@H](C(=O)N[C@@H](CCCNC(=N)N)C(=O)N[C@@H](CCC(N)=O)C(=O)N[C@@H](CCCNC(=N)N)C(=O)N[C@@H](CC1CCCCC1)C(N)=O)[C@@H](C)O
notes: also called compound No. 130; Ureido-[D-Pro24,Cha27,28,36,Aib31]-PYY(23-36)
B3: Ac-[D-Pro24, Cha27,28,36, Thr30, Aib31]-PYY(23-36) (peptide)
peptide: Ac-S[dP]RH[Cha][Cha]NT[Aib]TRQR[Cha]-NH2
SMILES: CC(=O)N[C@@H](CO)C(=O)N1CCC[C@@H]1C(=O)N[C@@H](CCCNC(=N)N)C(=O)N[C@@H](Cc1c[nH]cn1)C(=O)N[C@@H](CC1CCCCC1)C(=O)N[C@@H](CC1CCCCC1)C(=O)N[C@@H](CC(N)=O)C(=O)N[C@H](C(=O)NC(C)(C)C(=O)N[C@H](C(=O)N[C@@H](CCCNC(=N)N)C(=O)N[C@@H](CCC(N)=O)C(=O)N[C@@H](CCCNC(=N)N)C(=O)N[C@@H](CC1CCCCC1)C(N)=O)[C@@H](C)O)[C@@H](C)O
notes: also called compound No. 132
B4: Ac-[D-Pro24, Cha27,36, Aib28, Lys30, Aib31]-PYY(23-36) (peptide)
peptide: Ac-S[dP]RH[Cha][Aib]NK[Aib]TRQR[Cha]-NH2
SMILES: CC(=O)N[C@@H](CO)C(=O)N1CCC[C@@H]1C(=O)N[C@@H](CCCNC(=N)N)C(=O)N[C@@H](Cc1c[nH]cn1)C(=O)N[C@@H](CC1CCCCC1)C(=O)NC(C)(C)C(=O)N[C@@H](CC(N)=O)C(=O)N[C@@H](CCCCN)C(=O)NC(C)(C)C(=O)N[C@H](C(=O)N[C@@H](CCCNC(=N)N)C(=O)N[C@@H](CCC(N)=O)C(=O)N[C@@H](CCCNC(=N)N)C(=O)N[C@@H](CC1CCCCC1)C(N)=O)[C@@H](C)O
notes: also called compound No. 135
B5: 2-Hydroxyethylcarbamoyl-[D-Pro24, Cha27,36, Leu(Me)28, Lys30, Aib31]-PYY(23-36) (peptide)
peptide: {2‑hydroxyethylcarbamoyl}-S[dP]RH[Cha][tBuAla]NK[Aib]TRQR[Cha]-NH2
SMILES: C[C@@H](O)[C@H](NC(=O)C(C)(C)NC(=O)[C@H](CCCCN)NC(=O)[C@H](CC(N)=O)NC(=O)[C@H](CC(C)(C)C)NC(=O)[C@H](CC1CCCCC1)NC(=O)[C@H](Cc1c[nH]cn1)NC(=O)[C@H](CCCNC(=N)N)NC(=O)[C@H]1CCCN1C(=O)[C@H](CO)NC(=O)NCCO)C(=O)N[C@@H](CCCNC(=N)N)C(=O)N[C@@H](CCC(N)=O)C(=O)N[C@@H](CCCNC(=N)N)C(=O)N[C@@H](CC1CCCCC1)C(N)=O
notes: also called compound No. 188
B6: Ac-[D-Thr23, D-Pro24, Cha27,28,36, Aib31]-PYY(23-36) (peptide)
peptide: Ac-[dT][dP]RH[Cha][Cha]NL[Aib]TRQR[Cha]-NH2
SMILES: CC(=O)N[C@@H](C(=O)N1CCC[C@@H]1C(=O)N[C@@H](CCCNC(=N)N)C(=O)N[C@@H](Cc1c[nH]cn1)C(=O)N[C@@H](CC1CCCCC1)C(=O)N[C@@H](CC1CCCCC1)C(=O)N[C@@H](CC(N)=O)C(=O)N[C@@H](CC(C)C)C(=O)NC(C)(C)C(=O)N[C@H](C(=O)N[C@@H](CCCNC(=N)N)C(=O)N[C@@H](CCC(N)=O)C(=O)N[C@@H](CCCNC(=N)N)C(=O)N[C@@H](CC1CCCCC1)C(N)=O)[C@@H](C)O)[C@H](C)O
notes: also called compound No. 158
B7: 2-Hydroxyethylcarbamoyl-[Glu23, D-Pro24, Cha27,28,36, Lys30, Aib31]-PYY(23-36) (peptide)
peptide: {2‑hydroxyethylcarbamoyl}-E[dP]RH[Cha][Cha]NK[Aib]TRQR[Cha]-NH2
SMILES: C[C@@H](O)[C@H](NC(=O)C(C)(C)NC(=O)[C@H](CCCCN)NC(=O)[C@H](CC(N)=O)NC(=O)[C@H](CC1CCCCC1)NC(=O)[C@H](CC1CCCCC1)NC(=O)[C@H](Cc1c[nH]cn1)NC(=O)[C@H](CCCNC(=N)N)NC(=O)[C@H]1CCCN1C(=O)[C@H](CCC(=O)O)NC(=O)NCCO)C(=O)N[C@@H](CCCNC(=N)N)C(=O)N[C@@H](CCC(N)=O)C(=O)N[C@@H](CCCNC(=N)N)C(=O)N[C@@H](CC1CCCCC1)C(N)=O
notes: also called compound No. 192
B8: Ac-[D-Pro24, Glu26, Cha27,28,36, Aib31]-PYY(23-36) (peptide)
peptide: Ac-S[dP]RE[Cha][Cha]NL[Aib]TRQR[Cha]-NH2
SMILES: CC(=O)N[C@@H](CO)C(=O)N1CCC[C@@H]1C(=O)N[C@@H](CCCNC(=N)N)C(=O)N[C@@H](CCC(=O)O)C(=O)N[C@@H](CC1CCCCC1)C(=O)N[C@@H](CC1CCCCC1)C(=O)N[C@@H](CC(N)=O)C(=O)N[C@@H](CC(C)C)C(=O)NC(C)(C)C(=O)N[C@H](C(=O)N[C@@H](CCCNC(=N)N)C(=O)N[C@@H](CCC(N)=O)C(=O)N[C@@H](CCCNC(=N)N)C(=O)N[C@@H](CC1CCCCC1)C(N)=O)[C@@H](C)O
notes: also called compound No. 151
B9: Ac-[D-Pro24, Cha27,36, Leu(Me)28, Lys30, Aib31]-PYY(23-36) (peptide)
peptide: Ac-S[dP]RH[Cha][tBuAla]NK[Aib]TRQR[Cha]-NH2
SMILES: CC(=O)N[C@@H](CO)C(=O)N1CCC[C@@H]1C(=O)N[C@@H](CCCNC(=N)N)C(=O)N[C@@H](Cc1c[nH]cn1)C(=O)N[C@@H](CC1CCCCC1)C(=O)N[C@@H](CC(C)(C)C)C(=O)N[C@@H](CC(N)=O)C(=O)N[C@@H](CCCCN)C(=O)NC(C)(C)C(=O)N[C@H](C(=O)N[C@@H](CCCNC(=N)N)C(=O)N[C@@H](CCC(N)=O)C(=O)N[C@@H](CCCNC(=N)N)C(=O)N[C@@H](CC1CCCCC1)C(N)=O)[C@@H](C)O
notes: also called compound No. 136
B10: 3-Carboxypropionyl-[D-Pro24, Cha27,28,36, Lys30, Aib31]-PYY(23-36) (peptide)
peptide: Suc-S[dP]RH[Cha][Cha]NK[Aib]TRQR[Cha]-NH2
SMILES: C[C@@H](O)[C@H](NC(=O)C(C)(C)NC(=O)[C@H](CCCCN)NC(=O)[C@H](CC(N)=O)NC(=O)[C@H](CC1CCCCC1)NC(=O)[C@H](CC1CCCCC1)NC(=O)[C@H](Cc1c[nH]cn1)NC(=O)[C@H](CCCNC(=N)N)NC(=O)[C@H]1CCCN1C(=O)[C@H](CO)NC(=O)CCC(=O)O)C(=O)N[C@@H](CCCNC(=N)N)C(=O)N[C@@H](CCC(N)=O)C(=O)N[C@@H](CCCNC(=N)N)C(=O)N[C@@H](CC1CCCCC1)C(N)=O
notes: also called compound No. 167
B11: Ac-[Asn23, D-Pro24, Cha27,28,36, Aib31]-PYY(23-36) (peptide)
peptide: Ac-N[dP]RH[Cha][Cha]NL[Aib]TRQR[Cha]-NH2
SMILES: CC(=O)N[C@@H](CC(N)=O)C(=O)N1CCC[C@@H]1C(=O)N[C@@H](CCCNC(=N)N)C(=O)N[C@@H](Cc1c[nH]cn1)C(=O)N[C@@H](CC1CCCCC1)C(=O)N[C@@H](CC1CCCCC1)C(=O)N[C@@H](CC(N)=O)C(=O)N[C@@H](CC(C)C)C(=O)NC(C)(C)C(=O)N[C@H](C(=O)N[C@@H](CCCNC(=N)N)C(=O)N[C@@H](CCC(N)=O)C(=O)N[C@@H](CCCNC(=N)N)C(=O)N[C@@H](CC1CCCCC1)C(N)=O)[C@@H](C)O
notes: also called compound No. 115
B12: Ac-[D-Pro24, Thr26, Cha27,28,36, Aib31]-PYY(23-36) (peptide)
peptide: Ac-S[dP]RT[Cha][Cha]NL[Aib]TRQR[Cha]-NH2
SMILES: CC(=O)N[C@@H](CO)C(=O)N1CCC[C@@H]1C(=O)N[C@@H](CCCNC(=N)N)C(=O)N[C@H](C(=O)N[C@@H](CC1CCCCC1)C(=O)N[C@@H](CC1CCCCC1)C(=O)N[C@@H](CC(N)=O)C(=O)N[C@@H](CC(C)C)C(=O)NC(C)(C)C(=O)N[C@H](C(=O)N[C@@H](CCCNC(=N)N)C(=O)N[C@@H](CCC(N)=O)C(=O)N[C@@H](CCCNC(=N)N)C(=O)N[C@@H](CC1CCCCC1)C(N)=O)[C@@H](C)O)[C@@H](C)O
notes: also called compound No. 147

Legend:
[1] = target: T1, human Y2 receptor (human, UniProt P49146 1-381); experiment: cell-based or functional assay
T1 sequence (looked up): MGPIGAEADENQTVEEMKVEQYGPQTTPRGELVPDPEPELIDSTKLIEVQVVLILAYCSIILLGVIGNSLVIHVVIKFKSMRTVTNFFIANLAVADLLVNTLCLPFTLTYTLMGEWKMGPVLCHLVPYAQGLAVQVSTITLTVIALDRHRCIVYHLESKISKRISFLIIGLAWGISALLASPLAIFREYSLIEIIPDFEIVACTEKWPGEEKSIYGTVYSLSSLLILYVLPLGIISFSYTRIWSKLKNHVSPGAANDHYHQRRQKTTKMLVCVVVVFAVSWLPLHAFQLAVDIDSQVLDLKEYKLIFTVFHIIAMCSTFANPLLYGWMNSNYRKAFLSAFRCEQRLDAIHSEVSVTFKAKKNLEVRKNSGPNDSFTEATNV

[2] = target: T1, human Y2 receptor; experiment: RBA: [125I]-PYY displacement, hY2R/CHO membranes
Protocol: After incubation at room temperature for 60 minutes, the mixture was filtered through the cell harvester FilterMate (PerkinElmer) using UniFilter-96 GF/C treated with polyethylenimine (PEI) solution (20 mM Tris, 0.3% PEI, pH 7.4), and the filter was washed 3 times with a filtering buffer (50 mM Tris, 5 mM MgCl₂, 150 mM NaCl, 0.03% NaN₃, 0.05% CHAPS, pH 7.4). Thereafter, UniFilter-96 GF/C was dried in a mechanical drier for 1 hour, 15 μl of the liquid scintillator MicroScint O (PerkinElmer) was added to each well, and a measurement was taken using TopCount (PerkinElmer). The data obtained were analyzed using Prism to calculate the IC₅₀ value.

Row | Binder | GBA EC50 Ratio (vs PYY(3-36)), [35S]GTPγS [1] | IC50 Ratio (vs PYY(3-36)) [2]
1 | B1 | 23 ratio | 92 ratio
2 | B2 | 1 ratio | 1.8 ratio
3 | B3 | 3.1 ratio | 6.1 ratio
4 | B4 | 0.84 ratio | 1.9 ratio
5 | B5 | 0.71 ratio | 0.6 ratio
6 | B6 | 2.6 ratio | 7.1 ratio
7 | B7 | 1.2 ratio | 1.3 ratio
8 | B8 | 9.5 ratio | 68 ratio
9 | B9 | 0.63 ratio | 0.57 ratio
10 | B10 | 1.1 ratio | 0.64 ratio
11 | B11 | 1.7 ratio | 2.4 ratio
12 | B12 | 2.1 ratio | 9.3 ratio
